According to US20250320281A1:

What was measured:
[1] = molecular target: HIV-1 Env of isolate 93IN905 (pseudovirus) (HIV-1); assay: cell-based or functional assay
JR-FL gp120 ΔV3 (HIV-1) = assay: ELISA, antigen-coated wells
[2] = molecular target: HIV-1 Env of isolate JR-FL (subtype B pseudovirus) (HIV-1); assay: cell-based or functional assay
[3] = molecular target: HIV-1 IAVI_C22 Env on pseudotyped virus (HIV-1 isolate IAVI_C22); assay: cell-based or functional assay
[4] = molecular target: aMLV envelope on pseudotyped virus (negative control) (aMLV); assay: cell-based or functional assay
[5] = molecular target: HIV-1 92BR020 Env on pseudotyped virus (HIV-1 isolate 92BR020); assay: cell-based or functional assay
[6] = molecular target: HIV-1 MGRM-AG-005 envelope glycoprotein (Env) on pseudovirus (HIV-1); assay: cell-based or functional assay
[7] = molecular target: HIV-1 MGRM-D-018 envelope glycoprotein (Env) on pseudovirus (HIV-1); assay: cell-based or functional assay
[8] = molecular target: HIV-1 envelope glycoprotein (Env) of isolate MGRM-Chronic-B-004 (HIV-1); assay: cell-based or functional assay
[9] = molecular target: HIV-1 envelope glycoprotein (Env) of isolate MGRM-Chronic-B-002 (HIV-1); assay: cell-based or functional assay
[10] = molecular target: HIV-1 envelope glycoprotein (Env) of isolate CAAN.A2 (HIV-1); assay: cell-based or functional assay
[11] = molecular target: HIV-1 Env of isolate 94UG103 (subtype A) (HIV-1); assay: cell-based or functional assay
[12] = molecular target: HIV-1 Env of isolate 92RW008 (subtype A) (HIV-1); assay: cell-based or functional assay
[13] = molecular target: HIV-1 envelope glycoprotein (Env) of isolate MGRM-Chronic-B-001 (HIV-1); assay: cell-based or functional assay

Sequence of 4980_N08 (PGT-143) (antibody) (VH): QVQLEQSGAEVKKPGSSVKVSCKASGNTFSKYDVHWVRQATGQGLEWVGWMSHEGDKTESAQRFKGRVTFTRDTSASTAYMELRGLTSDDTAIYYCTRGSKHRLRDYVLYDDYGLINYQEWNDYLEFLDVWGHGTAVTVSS
Sequence of 4980_N08 (PGT-143) (antibody) (VL): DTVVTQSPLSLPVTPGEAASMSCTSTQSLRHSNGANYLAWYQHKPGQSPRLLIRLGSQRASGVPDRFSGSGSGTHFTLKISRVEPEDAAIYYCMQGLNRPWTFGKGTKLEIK
Sequence of 5329_C19 (PGT-136) (antibody) (VH): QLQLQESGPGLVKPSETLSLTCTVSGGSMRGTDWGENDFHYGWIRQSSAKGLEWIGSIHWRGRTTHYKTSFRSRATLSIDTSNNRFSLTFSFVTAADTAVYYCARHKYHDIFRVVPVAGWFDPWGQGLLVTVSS
Sequence of 5329_C19 (PGT-136) (antibody) (VL): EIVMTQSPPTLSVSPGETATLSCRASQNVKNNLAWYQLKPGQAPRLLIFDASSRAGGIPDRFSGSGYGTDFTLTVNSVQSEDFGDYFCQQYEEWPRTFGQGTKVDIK
Sequence of 5345_I01 (PGT-137) (antibody) (VH): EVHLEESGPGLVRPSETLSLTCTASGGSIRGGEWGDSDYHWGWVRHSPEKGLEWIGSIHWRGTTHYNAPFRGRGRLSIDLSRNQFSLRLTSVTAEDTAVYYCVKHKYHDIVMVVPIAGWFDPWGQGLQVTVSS
Sequence of 5345_I01 (PGT-137) (antibody) (VL): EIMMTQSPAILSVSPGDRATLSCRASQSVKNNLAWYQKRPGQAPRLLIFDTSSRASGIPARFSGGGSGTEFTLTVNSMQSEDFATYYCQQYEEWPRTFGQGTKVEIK

5329_C19 (PGT-136) (antibody) was tested, and the Primary Neutralization Index (B cell culture supernatant) [1] was 5.6 and the EC50 (JR-FL gp120 ΔV3 (HIV-1)) was 0.1 µg/mL.
In the case of 5145_B14 (PGT-127) (antibody), the IC50 (µg/mL), pseudovirus neutralization [2] is reported as 0.029 µg/mL.
5345_I01 (PGT-137) (antibody) showed a Primary Neutralization Index (B cell culture supernatant) [1] of 3.3 and an EC50 (JR-FL gp120 ΔV3 (HIV-1)) of 0.1 µg/mL.
5343_B08 (PGT-135) (antibody) was tested, and the Primary Neutralization Index (B cell culture supernatant) [1] was 43 and the EC50 (JR-FL gp120 ΔV3 (HIV-1)) was 0.2 µg/mL.
For 4877_D15 (PGT-122) (antibody), the IC50 (µg/mL), pseudovirus neutralization [2] was 0.026 µg/mL.
1495_C14 (PGC14) (antibody) was tested, and the Neutralizing Antibody Assay: IC50; Virus/Ab Incubation 1 hour [3] was > 50 µg/mL, the Neutralizing Antibody Assay: IC50; Virus/Ab Incubation 18 hour [3] was 13.4 µg/mL and the Neutralizing Antibody Assay: IC50; Virus/Ab Incubation 1 hour [4] was > 50 µg/mL. For the same substance, the Neutralizing Antibody Assay: IC50; Virus/Ab Incubation 18 hour [4] was > 50 µg/mL, the Neutralizing Antibody Assay: IC50; Virus/Ab Incubation 1 hour [5] was 1.17 µg/mL and the Neutralizing Antibody Assay: IC50; Virus/Ab Incubation 18 hour [5] was 0.244 µg/mL.
Work on 4858_P08 (PGT-123) (antibody) yielded a neutralization IC50 [6] of 0.104 µg/mL, a neutralization IC80 [6] of 1.28 µg/mL and a neutralization IC90 [6] of 6.38 µg/mL. The neutralization IC95 [6] was > 10 µg/mL, the IC50 (µg/mL), pseudovirus neutralization [2] was 0.014 µg/mL and the neutralization IC50 [7] was 0.0047 µg/mL. For the same substance, the neutralization IC80 [7] was 0.0175 µg/mL, the neutralization IC90 [7] was 0.0381 µg/mL and the neutralization IC95 [7] was 0.0791 µg/mL.
For 4838_L06 (PGT-121) (antibody), the EC50 (JR-FL gp120 ΔV3 (HIV-1)) was > 10 µg/mL.
With 4980_N08 (PGT-143) (antibody) the IC50 (µg/mL), pseudovirus neutralization [8] was 0.395 µg/mL, the IC50 (µg/mL), pseudovirus neutralization [9] was > 50 µg/mL and the IC50 (µg/mL), pseudovirus neutralization [10] was > 50 µg/mL. For the same substance, the IC50 (µg/mL), pseudovirus neutralization [11] was > 50 µg/mL, the IC50 (µg/mL), pseudovirus neutralization [12] was 0.385 µg/mL and the IC50 (µg/mL), pseudovirus neutralization [13] was > 50 µg/mL.
